B1: Hepatovirus I (nucleic acid)
DNA: GGCTGCCTGTGTCTCAGGGGTAAGTACTGGGGCCGCGTTGACCGTGCGGTACGGTTATGCTTTTAGATTAGGATGTCCGTCTGTCCGGCACTCTCTTTTGCTTAAAATGGCCTTAAATCCATGGGAGGCGTAACCATGGGCCCTTTGTTACCTAGACATGATTGCATTGGGGGCCGTCCTTGGGGCTTAGGCCCCAGCCATTTCTCTTGACTCGTCTAAGAGTTTACTTCATCCTTTTCTTTACTTTATTTTCCAGGCTCTCAGCATGCCGACGGCTCTGACCACTGCGCCCGGTGGGGTTAACTGCATGATTAGCATGCAGCTGTAGGAGTTAAAAGTGCTGACAGGCCAATTCTGACGTAAGTCCACTCTATATTAACTTGATCAAGTAAGGTTGATTGATCTTTGTGAGAGGGTAGGCTACGGGTGAAACCCTCTAGGTTAATACTCATATTGAGAGATACCTCCAGAAGGTGAAGGTTGGCGGATATTGGTGAGTTCTTTTAGGACAAAAACCTTTCAACGCCTGTGGGCCCACCTCACTGGCACAATGCTTTCATCCCCAATTGTGATGGGTAGTTTGGACTGAAATCAGGAGTAACCTGCCCTACGAGTTTAGGGGTAGTTCAGGGGTATTTAGGCTTCCACATTTGATAGAGTTTATGAGAGTGAGCC
modifications: Hepatovirus I
B2: Tremovirus B (nucleic acid)
DNA: TTCAAATGGCCCCTGGGTTGATACCCAGTGGTCATTTGGACACTTTGGTAAGGAGGTGTAATTATCCTTCCCATGTGGAACCTAGTGCTTAGGTTTACTTTATATGTTCTTTGTTTGTCCTTTGTACTTTCTATCGGGCAATCTTGTTGTTCAATACAATATGTATTTGAACTGCCTAAGATAAATTCAGTTTTCAACCAACCCCTCTCTTGGGGTTGTGTCTTTCTTTCTTTCTTATATCCTCTTAAGCTGACTTACTTGCTAATCCGACTCCTCGTCAACGGGAGGGTAAAGCAGTATCACTAGGGTATTGTGATGTAGGAGAAAAAGTAAGTAGAGATAGTGCATGTAACGAAAGTGACTTGGTACTTTAAACTCTCTTAATCCCAAAGTGTGGTATTGGTCATGTTGGAGTAGGCTACGGGTGAAACTCCTTCACATTTAGTAATGTGTTCACACGCTAACGCTACGGTAGATGACAGACTAGGTCTTATTCTCAACGTAGGGGGACGGGTGTATGTTCATGATTAGCCACATATTAAGGTTTTGAGGGGCTGAGTCATATAAGTATGTGCATTAATTTCTGGTACTGGTCCCTGGGGACTGGCCCTTTTCTAGGTTGATTTTAGTTTCCCCAATTTTTAAAAACTAATGAGATTTACGAC
modifications: Tremovirus B
B3: Hepatovirus G1 (nucleic acid, listed as Hepatovirus sp.)
DNA: GCAAGGGGTGGTTTTAACCTTGCACGCGTTTACCGTGCGTTAACGGTTTTCCATGTTTGTATGTCTTGTTTGTATTATGTGTTTTGTAAATATTAATTCCTGCAGGTTCAGGGTTCTTTAATCATGTTGGGCTGTACCCACACTCAACTTTTGGCCATAAGTGAGTTTCTTAACGAACCTTTTAACACAGGATGTTATTAGGGCCCAATATTTTCCCTGAGGCCTTCTTTGGCCTCTATTTTTTCCCCTTTTCTATCTCCTTGTATTCCGGGCTCACGTGATGCCAATGGACTGACCCATGCGCCCGTGGGGGTTAACTACTGGAGTAGCCAGTAGCTGTAGGTGCTAAAAGTCACGTACGTGTAAGACTGGACGAGACCTCTCAGCTATAACTGAAAGTAGTAAGTATGTCTGAACTTCTTGAAGGGGTAGGCTACGGGTGAAACCCCTTAGGTTAATACTCATATTGAGAGATACCTCTGATAGGTGAAGGTTTCCGGTAGAGGTGAGTTTAACGACAAAGCCTCTCAACGGATGTGGGCCCACCTCATCAGCAAGATGCTTTCATACCCAATACCGTAGGGGCTGGGTTGTTGAGTTCAGTCCCAAGCGTCCCTCCCGCAAGGTTGTAGGGGTACTCAGGGGCATTTAGGTTTCCACAATTAAACAAATACA
B4: Hepatovirus H2 (nucleic acid, listed as Hepatovirus sp.)
DNA: GTCATGTTTCTCTTTAAGAACACTCAATTTTGGCCATAAGTGAGACTCTTGTCGAACCTTTCATGTCAGGACCATGTTAGGGCCATTATCCTTTTCCCTGGGGCATTCTTCTTGCCCCTGTTTCATCTTTCTATCATCTTTCTTCCGGGCTCTCACAATGCCAATGGAGCGACCGATGCGCACGTCGGGGTTAACCCATGGATTAGCCATGGGCTGTAGCTGCTAAAAGTTGTGACTCCTGAAGCATACTATCAATGGTAGTAGATGTAACTGAAACACTGAAGCTTCTCTGATCTTGAAAGAAGGGTAGGCTACGGGTGAAACCCTTCAGGTTAATACTCATATTGAGAGATACCTTTGGTAGGTTAACGTTGGCGGATAATGTTGAGTTTAACGACAATAAACATTCAACGCCTGTGGGCGAACCTCACCAATTTCATGCTTTGAAGTGAATGTGCGTAGGGTCTCTATCGGAGATGCTATGTGGATGGTGCCCTCCCTGGAAACAGGTTGTAGGGGTACTCAGGTGCACTTAGGTTTCCACATTTTAAAGATTTTTC
B5: Falcovirus A1 (nucleic acid)
DNA: TAAAAGGGGACGCGGTGTGGCAGCTTTGGCTGTCATGCCGTGTTCTCCTTTTACCCCAAGGACTAGCCTTGGGGGTTTTCCAAATTCCTTTCCCTGTAGGCTTTACTTCTCTTTATCTATCTTTTCTGTAACTAAGTTTTGCCTATTCTAAAAATATTTTAGAATGTGTTTGGATGTAACTAAGTTTGTGCCTGCCCTAAAAATATTTTAGGGCTTGTTTGGATAACCTCGTCCCTTGTGTTCAGTGCCGCACAATTTGCTAGGCACTGTTCACTTCCTTTGTTTGTCCATTATGTATGCTAAGGTATGAATTCCATCATATGCTTAGCCTCTACATGCATAATCTTATTCCCTCCCTGGTGCAAACTACGCCCCCAACATATGTGAATCTTTTAAGCATATTCCTGACCCCACACATATATATGTGTTCTCGTGAATTCCCCCACCGTGAGGTGGTCACTTGGACGTGGTGTGTGTCACACAGCATATATATGATGCAGGATGTTGTTTTTAAGATAAGCATATGTCCTTAGTGCTTTGCATCATTTCCTCCACACCCCGTGAATGCGGCTAATCTTAACCCTGTTGGGTCCGTGGGTAAACCAACCCATTAACCACAGGACGGAACCGACTACTTTCGGGAGTGTGTGTTTCTTTTTCTTCTTTTGTCACT
B6: Hepatovirus D (nucleic acid)
DNA: CTTTGGATGCCCATAGTGCGGGGGTATAAATACCGCACTCCCTTTAGCTGTTCCGAGGGTATCGGAACCTATATGTTTGTTTTCTGTCTGTCTGTCAGCTTTATGTGTGCTCGTCCCCTTTAGGGCACTCATTTCAGCTTGCTTTCATTCTTTTCTTCCCCGGTTCTCACCTTACCGGAGGCACTGGCCGTTGCGCCCGGCGGGGTCAACCTAGTGATTAGCACTAGGCTGTAGGTGTCTAAAGTGGTGACATTAAGACTTGGTAACTGATTTCAGCACTGTTAACTGATGTTGGGGATGACTTGATTGATCTTCTGGAAGGGGTAGGCTACGGGTGAAACCCCTTATCTTAATACCACTATGTAGAGATAGATTCAGTAGGTTAAGGGCAGTGGATAAGGTTGAGTTCATTTTGGACAATAAACCTTCAACACTGGTGGACCCAATCTCACTGACCAGATGCTTTCTTGACTGATCCTTCAGAGGGGTGATTCTTCTGAATAGGTTGCCTTGACACTGATGCCTGAGACCCATTGGGTCGGGCCTTAAATCATGGAACTCCACTGGACTTTCATGGCCTAGCTTCTGCCTTAGACAGACTCTGGGGCCCCACGACCCTCTGGGCCCTTCGGGGTACTCAGGGGCATTTAGGTTTTTCCACAATTAAAAGAGTTA
modifications: Hepatovirus D
B7: Yancheng osbecks grenadier anchovy picornavirus (nucleic acid)
DNA: CCTTAGGGTCTGGAATGCGTCCTTTCTGGGCACTTCCACAATCCTAAGGTAATTTTCAACGCCAGCGATGGAGCGATATCCAAAGAACCTTTATGTTTTAGTTCGTCTTGTATGTTTATAAAATATAAAATTGGGATTAGCAACCCACAAAAACATTTTTGTTATTCTCACCACATGAGAGGGTGGTTAAACCTCTTCGTAACCTATCTTGCTTGATTGGCTACTTGGGCTAGATTTAGGACAACCTCTTTAGCAAGCCTAAATTACTCCTCGTACTTGCACCTGGTAACAGGCGTACCTGGAGGTTACGGTGGCGCTAACTTGGACTTCTCGTTAATTCGTGCAAGTTTAAATGATGCCTATTTTGAATACAAGAAAGTATGATAGTAACTTAGGGCGTGAAGTTCCGCTTAACATAAGGCAGTATAAGTACTAAGATAAGGTGTAAGACCTACCTTAATAACTGTTGTCTTTTCTCATGGTCTTTCCGTGGGAGCCCTTGCTAGGGGTAAAGTTAAGTATTCTCAAATAATTTTTCATTCAAACTCTTTCTCTCTGTTTT
B8: Didelphis aurita HAV (nucleic acid)
DNA: TCTTTGGTCTGGGGAACTAAAATACCAGACCCGCGTTTGCCTAGCGATATAGGCTTTAATTGTTGTTTGTCATTGTGCGTTTGATATGTGTTTTAATGTAAATAATAATTCTAGCAGGTTCTAGTTCTTGATCATGTCCTCTTTAAGGCACTCATTTCAACTTGCTATCTTTCTTTTCTTCCTTGGTTCTCCCTACACCAAATGCACTGGCCGCTGCGCCCGGCGGGGTCAACCACATGATTAGCATGTGGCTGTAGGTGTTGAAGGCTGGGACATGAACATCAATGGAATAGTGCGCATGCTTACTGGGGTCCATTGAAGTAGTGGGATCTTTCTATTGGGGTAGGCTACGGGTGAAACCCCTTAGGTTAATACTCATATTGAGAGATACCTTGGATAGGTTAACTGTGCTGGATATGGTTGAGTTTAACGACAAAAAGCCATCAACAGCTGTGGACAGAACCTCATCCTTAGATTGCTCACTATGGATATGTGCTCTGGGCGTGTTTCTTGCATGATGGCCATTGGTCAATTCATGCCTGGGCCAATGTAGGATTAGCCTTAAATTACTTTTTAAAAGTAGCCTCATTTAGCTGGACTAATGGTGGGGCGTATGATCCTGCATTTGGCCTCTGGGGTAATCAGGGGCATTTAGGTTTCCACATAATAGCAAAT
modifications: Hepatovirus A
B9: Turkey Gallivirus M176 (nucleic acid, listed as Gallivirus sp.)
DNA: CCACTCGCACTTCCTGGATAGTGCGTTAGATATGCCCGACATATCGCTTCCAGGACCAAAGCCCCCCTTTTCTCTTTCCCAACCAGCTTCGCCACTCAAGCTGTAATTCCATGTCCGGTCTTTCCGGCCTTAGTATCATGGAAATGTGGTCGTGCTCAAATGAAATTGAGTTGACATTGATCAATGAAAGTTGCACTGAACTTTGCTAAACTGGCTAGCGCCACCTGGTGTGTGCCGTTGGTCTCCTCACATGGTAACATGTGCCAACGGGCCCGAAAGGCTAGTGGGCAATTACCGCTCCAAGGGAGGGGTACCCACCCCGACCTGAACAGCGGTAATGAAGCTCACCTCCCAGGCTCTGACCCCGAGAAGTTTAGTTATTTAGTAGGTGTAATTAGTACTTGTGATTGGTCAATTTGATAGTAGTTTGAAACGTTATGGATGAATGAGTAGACCCCCTGAAGGTACCCCATTACATGGGATCTGATCAGGGCCACATTCTGCGTGTCTCCCCGCACTTGTGGTTAAAACCATGAAAGTTCATCCCAAACAATCTTTTCCTCTTCTTTTTCTTTTAGTGGTGACAACCTACTGGATTGGTGATTACCAATCTGTACTAGTGTTGTATTAAGACTTGTTGTGTGGAGAAAATGGACTCTTTCAAGAAGATTTTTG

test system: HEK293 cells; type: cell-based, human; conditions: luminescence from secreted Gluc in supernatant 24 hours after transfection of HEK293 cells; circular RNA encoding Gluc with the named IRES (UTR truncated to 675 nt)

Molecule	Expression
B1	8.79E+05
B2	1.31E+05
B3	1.41E+05
B4	1.08E+05
B5	1.48E+05
B6	1.47E+06
B7	1.57E+06
B8	1.38E+05
B9	4.37E+05

Source: patent US20230226096A1 (Orna Therapeutics, Inc., priority 2020, published 2023)
